Experimental data taken from patent US20260125454A1 (SHANGHAI JUNSHI BIOSCIENCES, published 2026).
Where a chain is given by its changes, count along the chain named.

T1: Biotin-huCGRPaSA (human, not fully specified; biotin (position not given))
T1 construct: exact construct ('aSA') not explained; also called Biotin CGRPaSA; full-length (1-37) CGRP
T1 peptide: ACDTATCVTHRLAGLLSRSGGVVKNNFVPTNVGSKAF

B1: hu122 (antibody, V domains shown)
VH: QVQLVQSGAEVKKPGASVKVSCKASGYTFTDYNMHWVRQAPGQGLEWMGNIYPYNGGTVYNQKFNNRVTLTVDTSSSTAYMELRSLRSDDTAVYYCAREGLGGYWGQGTLVTVSS
VL: EIVLTQSPATLSLSPGERATLSCKASQNIDFDGYAYMNWYQQKPGQAPRVLIYSVFNLESGIPARFSGSGSGTDFTLTISSLEPEDFAVYYCQQSHEVPYTFGQGTKLEIK
notes: 2B8 HC1-2/1F5 LC1-1
B2: hu212 (antibody, V domains shown)
VH: B1 VH with N50Y, G57H, N65R
VL: DIQLTQSPSFLSASVGDRVTITCKASQNIDYDGYAYLNWYQQKPGKAPKVLIYSVFNLESGVPSRFSGSGSGTEFTLTISSLQPEDFATYYCQQSNEFPYTFGQGTKLEIK
notes: 3H10 HC-2/1A2 LC2-4
B3: hu13 (antibody, V domains shown)
VH: B1 VH with N50Y, Y52F, G57V, T58A, Q62R, N65R, N66S, V72I
VL: B2 VL with F10S, D32G, A35S, L37M, E74D, F98A
notes: 1B2 HC-1/3H10 LC2-2
B4: hu4 (antibody, V domains shown)
VH: B1 VH with N50Y, Y52F, G57V, T58A, Q62R, N65R, N66S, V72I
VL: B2 VL
notes: 1B2 HC-1/1A2 LC2-4
B5: hu175 (antibody, V domains shown)
VH: B1 VH with N50Y, Y52S, V59A, N65K, N66F, R84S, S85R, A92V
VL: B1 VL with Q42H
notes: 3E5 HC-3/1F5 LC1-2
B6: hu173 (antibody, V domains shown)
VH: B1 VH with N50Y, Y52S, V59A, N65K, N66F, R84S, S85R, A92V
VL: B2 VL
notes: 3E5 HC-3/1A2 LC2-4
B7: hu148 (antibody, V domains shown)
VH: B1 VH with A24T, G44R, N50Y, Y52S, V59A, N65K, N66F, R84S, D89E
VL: B1 VL
notes: 3E5 HC-1/1F5 LC1-1
B8: hu17 (antibody, V domains shown)
VH: B1 VH with G44R, N50Y, Y52F, G57V, T58A, Q62R, N65R, N66S, R84S, D89E
VL: B2 VL
notes: 1B2 HC-2/1A2 LC2-4
B9: hu186 (antibody, V domains shown)
VH: B1 VH with A24T, G44R, N50Y, Y52S, G56A, V59A, N65K, N66F, R84S, D89E
VL: B2 VL
notes: 3E5 HC-4/1A2 LC2-4
B10: hu117 (antibody, V domains shown)
VH: B1 VH with R84S, S85R
VL: B2 VL with F10S, D32G, A35S, L37M, E74D, F98A
notes: 2B8 HC1-1/3H10 LC2-2
B11: hu147 (antibody, V domains shown)
VH: B1 VH with A24T, G44R, N50Y, Y52S, V59A, N65K, N66F, R84S, D89E
VL: B2 VL
notes: 3E5 HC-1/1A2 LC2-4
B12: hu30 (antibody, V domains shown)
VH: B1 VH with T30I, Y32F, G44R, N50Y, G57D, T58V, K63N, N65T, R84S, D89E
VL: B2 VL
notes: 1F5 HC-1/1A2 LC2-4
B13: hu143 (antibody, V domains shown)
VH: B1 VH with G56A, R84S, S85R
VL: B2 VL with F10S, D32G, A35S, L37M, E74D, F98A
notes: 2B8 HC1-3/3H10 LC2-2
B14: hu174 (antibody, V domains shown)
VH: B1 VH with N50Y, Y52S, V59A, N65K, N66F, R84S, S85R, A92V
VL: B1 VL
notes: 3E5 HC-3/1F5 LC1-1
B15: hu161 (antibody, V domains shown)
VH: B1 VH with G44R, N50Y, Y52S, V59A, N65K, N66F, R84S, D89E
VL: B1 VL
notes: 3E5 HC-2/1F5 LC1-1
B16: hu187 (antibody, V domains shown)
VH: B1 VH with A24T, G44R, N50Y, Y52S, G56A, V59A, N65K, N66F, R84S, D89E
VL: B1 VL
notes: 3E5 HC-4/1F5 LC1-1
B17: hu172 (antibody, V domains shown)
VH: B1 VH with N50Y, Y52S, V59A, N65K, N66F, R84S, S85R, A92V
VL: B1 VL with F31Y, M37L, H96N, V98F
notes: 3E5 HC-3/1A2 LC2-3
B18: hu108 (antibody, V domains shown)
VH: B1 VH with R84S, S85R
VL: B2 VL
notes: 2B8 HC1-1/1A2 LC2-4
B19: hu135 (antibody, V domains shown)
VH: B1 VH with G56A, R84S, S85R
VL: B1 VL
notes: 2B8 HC1-3/1F5 LC1-1
B20: hu221 (antibody, V domains shown)
VH: B1 VH with N50Y, G57H, N65R
VL: B2 VL with F10S, D32G, A35S, L37M, E74D, F98A
notes: 3H10 HC-2/3H10 LC2-2
B21: hu214 (antibody, V domains shown)
VH: B1 VH with N50Y, G57H, N65R
VL: B1 VL with Q42H
notes: 3H10 HC-2/1F5 LC1-2
B22: hu95 (antibody, V domains shown)
VH: B1 VH with G44R, N50Y, I51V, T58S, V59A, N65K, N66S, R84S, D89E
VL: B2 VL
notes: 2A2 HC-1/1A2 LC2-4
B23: hu199 (antibody, V domains shown)
VH: B1 VH with N50Y, G57H, N65R, L70M, R98K
VL: B2 VL
notes: 3H10 HC-1/1A2 LC2-4
B24: hu134 (antibody, V domains shown)
VH: B1 VH with G56A, R84S, S85R
VL: B2 VL
notes: 2B8 HC1-3/1A2 LC2-4
B25: hu198 (antibody, V domains shown)
VH: B1 VH with N50Y, G57H, N65R, L70M, R98K
VL: B1 VL with F31Y, M37L, H96N, V98F
notes: 3H10 HC-1/1A2 LC2-3
B26: hu200 (antibody, V domains shown)
VH: B1 VH with N50Y, G57H, N65R, L70M, R98K
VL: B1 VL
notes: 3H10 HC-1/1F5 LC1-1
B27: hu188 (antibody, V domains shown)
VH: B1 VH with A24T, G44R, N50Y, Y52S, G56A, V59A, N65K, N66F, R84S, D89E
VL: B1 VL with Q42H
notes: 3E5 HC-4/1F5 LC1-2
B28: hu56 (antibody, V domains shown)
VH: B1 VH with Y32F, N50Y, G57D, T58V, K63N, N65T
VL: B2 VL
notes: 1F5 HC-3/1A2 LC2-4
B29: hu208 (antibody, V domains shown)
VH: B1 VH with N50Y, G57H, N65R, L70M, R98K
VL: B2 VL with F10S, D32G, A35S, L37M, E74D, F98A
notes: 3H10 HC-1/3H10 LC2-2
B30: hu160 (antibody, V domains shown)
VH: B1 VH with G44R, N50Y, Y52S, V59A, N65K, N66F, R84S, D89E
VL: B2 VL
notes: 3E5 HC-2/1A2 LC2-4
B31: hu121 (antibody, V domains shown)
VH: B1 VH
VL: B2 VL
notes: 2B8 HC1-2/1A2 LC2-4
B32: hu65 (antibody, V domains shown)
VH: B1 VH with Y32F, N50Y, G57D, T58V, K63N, N65T
VL: B2 VL with F10S, D32G, A35S, L37M, E74D, F98A
notes: 1F5 HC-3/3H10 LC2-2
B33: hu133 (antibody, V domains shown)
VH: B1 VH with G56A, R84S, S85R
VL: B1 VL with F31Y, M37L, H96N, V98F
notes: 2B8 HC1-3/1A2 LC2-3
B34: hu201 (antibody, V domains shown)
VH: B1 VH with N50Y, G57H, N65R, L70M, R98K
VL: B1 VL with Q42H
notes: 3H10 HC-1/1F5 LC1-2
B35: hu211 (antibody, V domains shown)
VH: B1 VH with N50Y, G57H, N65R
VL: B1 VL with F31Y, M37L, H96N, V98F
notes: 3H10 HC-2/1A2 LC2-3
B36: hu149 (antibody, V domains shown)
VH: B1 VH with A24T, G44R, N50Y, Y52S, V59A, N65K, N66F, R84S, D89E
VL: B1 VL with Q42H
notes: 3E5 HC-1/1F5 LC1-2
B37: hu82 (antibody, V domains shown)
VH: QVQLVQSGAEVKKPGASVKVSCKASGYTFIDFNMHWVRQAPGQRLEWMGYIYPYNADVVYNQDFTNRVTLTVDTSSSTAYMELSSLRSEDTAVYYCAREGLGGYWGQGTLVTVSS
VL: B2 VL
notes: 1F5 HC-5/1A2 LC2-4
B38: hu130 (antibody, V domains shown)
VH: B1 VH
VL: B2 VL with F10S, D32G, A35S, L37M, E74D, F98A
notes: 2B8 HC1-2/3H10 LC2-2
B39: hu43 (antibody, V domains shown)
VH: B37 VH with I30T, A56G, D63N
VL: B2 VL
notes: 1F5 HC-2/1A2 LC2-4
B40: hu162 (antibody, V domains shown)
VH: B1 VH with G44R, N50Y, Y52S, V59A, N65K, N66F, R84S, D89E
VL: B1 VL with Q42H
notes: 3E5 HC-2/1F5 LC1-2
B41: hu123 (antibody, V domains shown)
VH: B1 VH
VL: B1 VL with Q42H
notes: 2B8 HC1-2/1F5 LC1-2
B42: hu159 (antibody, V domains shown)
VH: B1 VH with G44R, N50Y, Y52S, V59A, N65K, N66F, R84S, D89E
VL: B1 VL with F31Y, M37L, H96N, V98F
notes: 3E5 HC-2/1A2 LC2-3

Molecular target: T1, Biotin-huCGRPaSA
Test: ELISA, supernatant; relative to chimeric C245
How it was run: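 Plates coated with biotin-CGRPaSA at 1.0 μg/mL (90 min, 37°C) and blocked with 2% BSA. Humanized antibodies and chimeric C245 reference, 2.5-fold serial dilutions from 1000 ng/mL, bound 60 min at 37°C. Detection by HRP anti-human IgG (Fc), TMB 15 min, read at 450/620 nm.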

Row | Binder | Relative binding activity, % [%]
1 | B1 | 97
2 | B2 | 38
3 | B3 | 27
4 | B4 | 58
5 | B5 | 82
6 | B6 | 92
7 | B7 | 100
8 | B8 | 35
9 | B9 | 53
10 | B10 | 36
11 | B11 | 111
12 | B12 | 47
13 | B13 | 41
14 | B14 | 84
15 | B15 | 88
16 | B16 | 67
17 | B17 | 94
18 | B18 | 70
19 | B19 | 98
20 | B20 | 24
21 | B21 | 57

Row | Binder | Relative binding activity, % [%]
22 | B22 | 43
23 | B23 | 41
24 | B24 | 86
25 | B25 | 39
26 | B26 | 43
27 | B27 | 46
28 | B28 | 53
29 | B29 | 15
30 | B30 | 50
31 | B31 | 49
32 | B32 | 20
33 | B33 | 81
34 | B34 | 67
35 | B35 | 54
36 | B36 | 91
37 | B37 | 97
38 | B38 | 53
39 | B39 | 44
40 | B40 | 81
41 | B41 | 96
42 | B42 | 26
